Results reported in the supplement of paper PMC7125110.
± gives the standard error. This sample holds only a part of the variants without activity.

B1: glmS ribozyme (parent)
chain: AUAAAAGCGCCAGAACUACAGAAAUGUAGUUGACGAGGAGGAGGUUUAUCGAAUUUUCGGCGGAUGCCUCCAAA

Assays:
Conditions in all cases: with glucosamine-6-phosphate
[1] = variants of: B1; experiment: self-cleavage kobs at 640 uM GlcN6P; higher = faster cleavage; RNA array
Procedure, shortened: (§1)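 Glucosamine-6-phosphate, from 40 μM to 10 mM in HEPES/KCl/Mg(OAc)2 buffer, was flowed over sequenced MiSeq chips carrying barcoded ribozyme variants transcribed in situ by E. coli RNA polymerase. A hybridised Cy3 probe tracked the variants at 37 °C as tiles were imaged over ~14 h. kobs, kcat and KM were obtained by fitting normalised per-tile medians to exponential decays and then applying weighted Michaelis–Menten fits across concentrations.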

[2] = variants of: B1; experiment: self-cleavage kobs at 2500 uM GlcN6P; higher = faster cleavage; RNA array
Procedure, shortened: as §1

[3] = variants of: B1; experiment: self-cleavage kobs at 10000 uM GlcN6P; higher = faster cleavage; RNA array
Procedure, shortened: as §1

| Variant | self-cleavage kobs at 640 uM GlcN6P [1] | self-cleavage kobs at 2500 uM GlcN6P [2] | self-cleavage kobs at 10000 uM GlcN6P [3] |
| --- | --- | --- | --- |
| G38C G41U G44C | < 1e-05 s⁻¹ | < 1e-05 s⁻¹ | – |
| C34G U65G | < 1e-05 s⁻¹ | < 1e-05 s⁻¹ | < 1e-05 s⁻¹ |
| A15U A39C A42U | < 1e-05 s⁻¹ | – | – |
| G35U C67A U69C | < 1e-05 s⁻¹ | – | – |
| A6G C67G C68A | 7.11e-05 ± 3.1e-05 s⁻¹ | – | – |
| G37A A64G C71U | 3.85e-05 ± 1.7e-05 s⁻¹ | – | – |
| U57A C71U | 5.18e-05 ± 2.1e-05 s⁻¹ | 0.000132 ± 3.1e-05 s⁻¹ | 0.000407 ± 0.00015 s⁻¹ |
| C11G C58A C68A | 0.000165 ± 6.6e-05 s⁻¹ | – | – |
| G40A G41A A42U C68G | < 1e-05 s⁻¹ | < 1e-05 s⁻¹ | – |
| G32C G44C A48C C67G | < 1e-05 s⁻¹ | < 1e-05 s⁻¹ | – |
| C16U A39G C58A | 9.4e-05 ± 1.7e-05 s⁻¹ | 0.000347 ± 4.1e-05 s⁻¹ | – |
| C16G A36C G51A G59C C61G | < 1e-05 s⁻¹ | < 1e-05 s⁻¹ | – |
| A6G G59A C67A | < 1e-05 s⁻¹ | < 1e-05 s⁻¹ | – |
| C16A G59U G60A | < 1e-05 s⁻¹ | – | – |
| C11A U30G G32U G44A G66A | < 1e-05 s⁻¹ | < 1e-05 s⁻¹ | – |
| U47C U55C | 0.00134 ± 0.00031 s⁻¹ | 0.0023 ± 0.00064 s⁻¹ | – |
| C34U U55A U57G C61U | < 1e-05 s⁻¹ | – | < 1e-05 s⁻¹ |
| U30A G37C A53U | < 1e-05 s⁻¹ | – | < 1e-05 s⁻¹ |
| C8A A15G G44A C61U C71A | < 1e-05 s⁻¹ | < 1e-05 s⁻¹ | – |
| C11G G41U C50U | < 1e-05 s⁻¹ | < 1e-05 s⁻¹ | – |
| A42G A64G C70A | 4.59e-05 ± 2.2e-05 s⁻¹ | 0.000247 ± 6.8e-05 s⁻¹ | – |

| Variant | self-cleavage kobs at 640 uM GlcN6P [1] | self-cleavage kobs at 2500 uM GlcN6P [2] | self-cleavage kobs at 10000 uM GlcN6P [3] |
| --- | --- | --- | --- |
| C11U C61G C67A | 0.000183 ± 5.6e-05 s⁻¹ | 0.000446 ± 0.00017 s⁻¹ | – |
| G13U A48C G59U G66U | < 1e-05 s⁻¹ | – | – |
| G9U G41A A42U | < 1e-05 s⁻¹ | < 1e-05 s⁻¹ | – |
| C58A G60U | < 1e-05 s⁻¹ | < 1e-05 s⁻¹ | < 1e-05 s⁻¹ |
| G9A G41A A53U | < 1e-05 s⁻¹ | < 1e-05 s⁻¹ | – |
| C19A G44U | 2.94e-05 ± 1.3e-05 s⁻¹ | 0.000114 ± 2.7e-05 s⁻¹ | – |
| A14U A64U U65A C67G C71G | 7.6e-05 ± 2.4e-05 s⁻¹ | 4.74e-05 ± 2.1e-05 s⁻¹ | – |
| A14U U47C C58G C68G | 5.55e-05 ± 1.6e-05 s⁻¹ | 0.000171 ± 4e-05 s⁻¹ | – |
| G13U C34G U45C U47A | < 1e-05 s⁻¹ | < 1e-05 s⁻¹ | – |
| G38A G41U A42C U45C U54G C68G | < 1e-05 s⁻¹ | – | – |
| G7A G43A U55A G60U C67U C70G | < 1e-05 s⁻¹ | – | – |
| U31C G35C G38U | < 1e-05 s⁻¹ | – | – |
| C16U C58U C67U C70U | 0.000267 ± 6.7e-05 s⁻¹ | 6.37e-05 ± 2.5e-05 s⁻¹ | – |
| G35C A36C G40A G62C A64G C70U | < 1e-05 s⁻¹ | < 1e-05 s⁻¹ | – |
| C50G C61A C67U | 0.000392 ± 0.0001 s⁻¹ | 5.47e-05 ± 2.1e-05 s⁻¹ | – |
| U45C A48C G63U | < 1e-05 s⁻¹ | < 1e-05 s⁻¹ | – |
| C11U U47A A53G U56A C70G | 5.74e-05 ± 1.8e-05 s⁻¹ | 0.000104 ± 3.4e-05 s⁻¹ | – |
| G37U C50A G51C | < 1e-05 s⁻¹ | – | – |
| U30G U55A | 0.0024 ± 0.00049 s⁻¹ | 0.00295 ± 0.00084 s⁻¹ | – |
| G29U A33U U56A A64G | < 1e-05 s⁻¹ | – | – |
| A6C U46C U47C G59A | < 1e-05 s⁻¹ | – | – |

| Variant | self-cleavage kobs at 640 uM GlcN6P [1] | self-cleavage kobs at 2500 uM GlcN6P [2] | self-cleavage kobs at 10000 uM GlcN6P [3] |
| --- | --- | --- | --- |
| A33C G35A U46A | < 1e-05 s⁻¹ | – | – |
| G7U C10U G43U | < 1e-05 s⁻¹ | – | – |
| G43A G51U U65A G66U | < 1e-05 s⁻¹ | < 1e-05 s⁻¹ | – |
| G51C U56G | < 1e-05 s⁻¹ | < 1e-05 s⁻¹ | < 1e-05 s⁻¹ |
| U30C A36C A39U G43A G44U | < 1e-05 s⁻¹ | – | – |
| C11U G41C C67U | < 1e-05 s⁻¹ | – | – |
| U31C U46C | 7.34e-05 ± 2.3e-05 s⁻¹ | 0.000204 ± 3.7e-05 s⁻¹ | 0.000295 ± 8e-05 s⁻¹ |
| A15U G38U A39C G41U U49G C70G C71G | < 1e-05 s⁻¹ | – | – |
| A6C C16U G60U | < 1e-05 s⁻¹ | < 1e-05 s⁻¹ | – |
| G29C U54G C70G | 7.66e-05 ± 3.1e-05 s⁻¹ | – | – |
| C16U C34U G66U C68G | 0.000354 ± 0.0001 s⁻¹ | – | – |
| C10U A33C U46C G51C G60C | < 1e-05 s⁻¹ | < 1e-05 s⁻¹ | – |
| G40U G44U G62U | < 1e-05 s⁻¹ | < 1e-05 s⁻¹ | – |
| G9A G13C U57C | < 1e-05 s⁻¹ | < 1e-05 s⁻¹ | – |
| C10U G13A G29A G41A | < 1e-05 s⁻¹ | – | – |
| C11A G37A C50U G59A C67U U69G | 6.37e-05 ± 2.7e-05 s⁻¹ | – | – |
| U46C G51U A52G U55A C61G | < 1e-05 s⁻¹ | < 1e-05 s⁻¹ | – |
| G9C A39U G40U | < 1e-05 s⁻¹ | < 1e-05 s⁻¹ | – |
| A36G U47A | < 1e-05 s⁻¹ | – | – |
